The source of these data is patent US20100092974A1, “METHODS FOR SCREENING FOR MODULATORS OF CCRL2” (The Board of Trustees of the Leland Stanford Junior …, priority 2008, published 2010).

For one experiment, the target named is T1, FcRεI (Mus musculus, UniProt P20489).
T1 construct: endogenous in cells; host or cells: mouse peritoneal mast cells
T1 sequence (P20489 24-250): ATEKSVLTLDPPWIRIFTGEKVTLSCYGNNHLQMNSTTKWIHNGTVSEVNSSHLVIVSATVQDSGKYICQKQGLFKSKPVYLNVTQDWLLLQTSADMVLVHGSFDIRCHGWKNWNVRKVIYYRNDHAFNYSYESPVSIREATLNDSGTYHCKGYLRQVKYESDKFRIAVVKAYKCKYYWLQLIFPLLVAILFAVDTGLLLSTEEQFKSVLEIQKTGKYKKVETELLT
T1 sequence (P20490 1-235 partner): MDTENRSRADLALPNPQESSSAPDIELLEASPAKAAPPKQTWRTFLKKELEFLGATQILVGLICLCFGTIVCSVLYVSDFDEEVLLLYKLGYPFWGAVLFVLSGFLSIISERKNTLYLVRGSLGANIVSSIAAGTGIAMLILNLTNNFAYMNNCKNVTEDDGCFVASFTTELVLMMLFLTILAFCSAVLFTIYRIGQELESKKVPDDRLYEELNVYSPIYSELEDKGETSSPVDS
T1 sequence (P20491 19-86 partner): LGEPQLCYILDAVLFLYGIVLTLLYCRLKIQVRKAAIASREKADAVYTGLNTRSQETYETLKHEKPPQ
Kind of experiment: IgE binding to FcRεI on peritoneal mast cells (specificity control). The note with it: 1000 nM chemerin.

The target in experiment [1] is T2, mCCRL2 (Mus musculus, UniProt O35457).
T2 construct: The coding regions of mCCRL2, huCCRL2, mCRTH2, and huCCR10 were amplified from genomic DNA; expressed in transfected cells
T2 sequence (O35457 1-360): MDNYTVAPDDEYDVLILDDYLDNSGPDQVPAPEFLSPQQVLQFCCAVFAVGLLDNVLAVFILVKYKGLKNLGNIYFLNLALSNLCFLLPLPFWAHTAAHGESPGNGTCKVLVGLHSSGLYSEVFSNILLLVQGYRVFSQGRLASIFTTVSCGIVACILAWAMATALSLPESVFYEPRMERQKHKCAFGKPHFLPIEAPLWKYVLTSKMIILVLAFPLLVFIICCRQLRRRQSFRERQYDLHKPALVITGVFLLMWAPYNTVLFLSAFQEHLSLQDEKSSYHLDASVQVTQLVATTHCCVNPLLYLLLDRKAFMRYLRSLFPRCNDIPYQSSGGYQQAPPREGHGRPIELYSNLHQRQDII
Kind of experiment: receptor internalization assay, mCCRL2-HA L1.2. The experiment is classed as cell-based. To be noted: 100 nM chemerin, 15 min. The protocol: (§1) The cells were then washed with 200 μl PBS and stained with mouse anti-HA (Covance, Inc) or mIgG1 isotype control, followed by staining with secondary anti-mouse IgG1 PE, fixed, and analyzed by flow cytometry.

The next experiment has as its target T3, huCCRL2 (Homo sapiens, UniProt O00421).
T3 construct: The coding regions of mCCRL2, huCCRL2, mCRTH2, and huCCR10 were amplified from genomic DNA; expressed in transfected cells
T3 sequence (O00421 1-344): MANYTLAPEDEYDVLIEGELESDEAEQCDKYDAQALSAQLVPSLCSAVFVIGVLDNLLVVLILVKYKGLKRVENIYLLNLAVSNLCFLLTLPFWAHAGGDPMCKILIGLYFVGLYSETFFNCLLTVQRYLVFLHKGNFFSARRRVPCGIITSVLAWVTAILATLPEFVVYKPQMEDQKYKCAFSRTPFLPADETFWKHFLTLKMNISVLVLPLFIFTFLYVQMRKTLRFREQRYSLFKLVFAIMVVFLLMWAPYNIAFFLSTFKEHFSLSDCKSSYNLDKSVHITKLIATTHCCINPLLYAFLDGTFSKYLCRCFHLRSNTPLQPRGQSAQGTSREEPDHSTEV
In words: receptor internalization assay, huCCRL2-HA L1.2. It counts as cell-based. To be noted: 100 nM chemerin, 15 min. The method, then:
as §1

In experiment [2] the target is T2, mCCRL2. Kind of experiment: intracellular calcium mobilization, CCRL2/HEK293 transfectants. The experiment is classed as cell-based. The note with it: HEK293 background, alone or in combination. The protocol:
Chemoattractant-stimulated Ca^2+-mobilization was performed following Alliance for Cell Signaling protocol ID PP00000210. Cells (3×10^6/mL) were loaded with 4 μM Fluo4-AM and 0.16% Pluronic acid F-127 (Molecular Probes) in modified Iscove's medium (Iscove's medium with 1% heat inactivated bovine calf serum and 2 mM L-glutamine, Invitrogen) for 30 minutes at 37° C. The samples were mixed every 10 minutes during loading, washed once, resuspended at up to 2×10^6/mL in the same buffer, and allowed to rest in the dark for 30 minutes at room temperature. Chemoattractant-stimulated change in Ca^2+-sensitive fluorescence of Fluo-4 was measured over real-time with a FACsScan flow cytometer and CellQuest software (BD Biosciences) at room temperature under constant stirring (500 rpm). Fluorescent data were acquired continuously up to 1024 seconds at 1-second intervals. The samples were analyzed for 45 seconds to establish basal state, removed from the nozzle to add the stimuli, and then returned to the nozzle. Mean channel fluorescence over time was analyzed with FlowJo (TreeStar, Ashland, Oreg., USA) software. […] 500 μl of these chemerin-loaded cells were added to mCMKLR1/L1.2 cells loaded with Fluo4-AM, and calcium mobilization was evaluated.

As for “chemerin: protein ligand for signaling receptor CMKLR1; serum form human chemerin expressed in baculovirus-infected insect cells, His8-tag removed”, the “binding of IgE to FcRεI” value in the experiment with FcRεI was “unaffected”. The ligand-induced receptor internalization entry in the experiment with mCCRL2 [1] and with huCCRL2 was “failed to internalize” throughout. Besides, the “agonism, intracellular calcium mobilization” value with mCCRL2 [2] is listed as “neither CCL2 nor chemerin functioned as agonists”.
